Experimental data as given in the Immune Epitope Database (IEDB).

Legend:
Assay in all cases: IEDB peptide-MHC binding, purified MHC/competitive/radioactivity; ≥ and ≤ were set here for values at or beyond the usual limits of such assays
HLA-A*02:03 = molecular target: HLA-A*02:03
HLA-A*02:02 = molecular target: HLA-A*02:02
HLA-A*02:01 = molecular target: HLA-A*02:01
HLA-A*02:06 = molecular target: HLA-A*02:06
HLA-A*68:02 = molecular target: HLA-A*68:02
[1] = source organism: Vaccinia virus WR
[2] = source organism: Influenza A virus
[3] = source organism: Hepacivirus hominis
[4] = source organism: Mammarenavirus lassaense

Row | Sequence | IC50 (HLA-A*02:03; source organism: SARS-CoV1) | IC50 (HLA-A*02:02; source organism: SARS-CoV1) | IC50 (HLA-A*02:01; source organism: SARS-CoV1) | IC50 (HLA-A*02:06; source organism: SARS-CoV1) | IC50 (HLA-A*68:02; source organism: SARS-CoV1) | IC50 (HLA-A*02:03; [1]) | IC50 (HLA-A*02:02; [1]) | IC50 (HLA-A*02:01; [1]) | IC50 (HLA-A*02:06; [1]) | IC50 (HLA-A*68:02; [1]) | also measured
1 | ALIARCWYL | 17 nM | 0.2 nM | 0.46 nM | 0.98 nM | 1260 nM | – | – | – | – | – | –
2 | NLFDIPLLT | – | – | – | – | – | 36 nM | 135 nM | 10 nM | 1540 nM | 2890 nM | –
3 | KIILFLTLI | 4.9 nM | 68 nM | 141 nM | 24 nM | 378 nM | – | – | – | – | – | –
4 | YLMCLSPLM | 0.3 nM | 0.14 nM | 0.34 nM | 1.1 nM | 1240 nM | – | – | – | – | – | –
5 | MAFDISVNA | – | – | – | – | – | 15 nM | 191 nM | 149 nM | 13 nM | 1.8 nM | –
6 | IIYSKAGNIL | – | – | – | – | – | 110 nM | 8.5 nM | 542 nM | 342 nM | 3920 nM | –
7 | ILQMREIIT | – | – | – | – | – | 1340 nM | 4100 nM | 380 nM | 1230 nM | 1160 nM | –
8 | FVATFRDMLL | – | – | – | – | – | 18 nM | 0.7 nM | 16 nM | 4.4 nM | 409 nM | –
9 | YQCGHYTHI | 15 nM | 72 nM | 20 nM | 9.2 nM | 2920 nM | – | – | – | – | – | –
10 | NLFEKFFPSS | – | – | – | – | – | – | – | – | – | – | IC50 (HLA-A*02:03; [2]): 362 nM; IC50 (HLA-A*02:02; [2]): 415 nM; IC50 (HLA-A*02:01; [2]): 271 nM; IC50 (HLA-A*02:06; [2]): 28 nM; IC50 (HLA-A*68:02; [2]): 360 nM
11 | RLRQDTEDI | – | – | – | – | – | 387 nM | 230 nM | 219 nM | 4580 nM | 4170 nM | –
12 | LLALLSCISV | – | – | – | – | – | – | – | – | – | – | IC50 (HLA-A*02:03; [3]): 1.3 nM; IC50 (HLA-A*02:02; [3]): 0.77 nM; IC50 (HLA-A*02:01; [3]): 2.4 nM; IC50 (HLA-A*02:06; [3]): 16 nM; IC50 (HLA-A*68:02; [3]): 2450 nM
13 | QMLSVVGFLV | 6 nM | 1.2 nM | 7.5 nM | 14 nM | 206 nM | – | – | – | – | – | –
14 | RIITILQDI | – | – | – | – | – | 5.6 nM | 583 nM | 146 nM | 2 nM | 1490 nM | –
15 | TILATLNTLI | – | – | – | – | – | 30 nM | 40 nM | 184 nM | 335 nM | 1470 nM | –
16 | YTISSESLV | – | – | – | – | – | 38 nM | 522 nM | 1060 nM | 54 nM | 3.3 nM | –
17 | MLWCKDGHV | 11 nM | 10 nM | 30 nM | 362 nM | 74 nM | – | – | – | – | – | –
18 | DQTHIKTIAV | – | – | – | – | – | 390 nM | 2170 nM | 650 nM | 1000 nM | 404 nM | –

Row | Sequence | IC50 (HLA-A*02:03; source organism: SARS-CoV1) | IC50 (HLA-A*02:02; source organism: SARS-CoV1) | IC50 (HLA-A*02:01; source organism: SARS-CoV1) | IC50 (HLA-A*02:06; source organism: SARS-CoV1) | IC50 (HLA-A*68:02; source organism: SARS-CoV1) | IC50 (HLA-A*02:03; [1]) | IC50 (HLA-A*02:02; [1]) | IC50 (HLA-A*02:01; [1]) | IC50 (HLA-A*02:06; [1]) | IC50 (HLA-A*68:02; [1]) | also measured
19 | FLPQIGGEA | – | – | – | – | – | 121 nM | 21 nM | 1360 nM | 96 nM | 149 nM | –
20 | VVFLHVTYV | 0.28 nM | 7.8 nM | 3.9 nM | 3.9 nM | 1 nM | – | – | – | – | – | –
21 | SSLENFRAYV | – | – | – | – | – | – | – | – | – | – | IC50 (HLA-A*02:03; [2]): 1140 nM; IC50 (HLA-A*02:02; [2]): 204 nM; IC50 (HLA-A*02:01; [2]): 172 nM; IC50 (HLA-A*02:06; [2]): 44 nM; IC50 (HLA-A*68:02; [2]): 24 nM
22 | LIAGIILLIL | – | – | – | – | – | 680 nM | 141 nM | 540 nM | 345 nM | 143 nM | –
23 | LTNAISSRV | – | – | – | – | – | 19 nM | 146 nM | 916 nM | 145 nM | 16 nM | –
24 | QLMCQPILL | 12 nM | 3 nM | 0.96 nM | 77 nM | 140 nM | – | – | – | – | – | –
25 | YASALVLLI | 4.9 nM | 3.2 nM | 13 nM | 8.7 nM | 10 nM | – | – | – | – | – | –
26 | SLCSCICTV | 4.2 nM | 4 nM | 3.2 nM | 5.8 nM | 1670 nM | – | – | – | – | – | –
27 | FISPASISSV | – | – | – | – | – | 0.11 nM | 3 nM | 1.4 nM | 2 nM | 17 nM | –
28 | LISFFGLFDI | – | – | – | – | – | 108 nM | 76 nM | 175 nM | 171 nM | 82 nM | –
29 | MLTNAISSRV | – | – | – | – | – | 0.11 nM | 53 nM | 208 nM | 224 nM | 101 nM | –
30 | MIIGEPIIVA | – | – | – | – | – | 111 nM | 42 nM | 44 nM | 124 nM | 280 nM | –
31 | ETIEILRNYL | – | – | – | – | – | 1410 nM | 474 nM | 944 nM | 0.28 nM | 0.13 nM | –
32 | GVMYAFTTPL | – | – | – | – | – | 44 nM | 34 nM | 83 nM | 45 nM | 2540 nM | –
33 | NCLSLLLSV | – | – | – | – | – | – | – | – | – | – | IC50 (HLA-A*02:03; [4]): 437 nM; IC50 (HLA-A*02:02; [4]): 49 nM; IC50 (HLA-A*02:01; [4]): 73 nM; IC50 (HLA-A*02:06; [4]): 630 nM; IC50 (HLA-A*68:02; [4]): 1850 nM
34 | PISDYSAEV | – | – | – | – | – | 267 nM | 716 nM | 1050 nM | 2800 nM | 1390 nM | –
35 | FTLLFQLCT | 744 nM | 1100 nM | 133 nM | 140 nM | 2740 nM | – | – | – | – | – | –
